According to patent publication US20250035634A1, “A METHOD FOR DETECTING CLUSTERING OF RAS PROTEIN” (Nanyang Technological University, priority 2021, published 2025):

System: KRasWT
Assay: nanobar-guided KRasWT clustering upon EGF activation in U2OS cells
Assay type: cell-based
Conditions: EGF 100 ng/ml, 1 hr, mean±s.e.m.
Method: Cell imaging is performed with laser scanning confocal microscopy (Zeiss LSM 800 with Airyscan) and a Plan-Apochromat 100×/1.4 oil objective. EGFP is excited at 488 nm and detected at 490-570 nm. RFP is excited at 561 nm and detected at 570-645 nm. Images were taken with a resolution of 512×512 pixels, 16-bit and 124 nm pixel size. A scanning speed of 20 s/image and an averaging mode of 4 times/line can be applied. During imaging, the cells are maintained in live cell imaging solution (Thermo Fisher) at 37° C. in an on-stage incubator. […] The images are conducted with a single snap shot for display of Ras variants and the quantification. For the imaging of co-expressed K-Ras variants and CRaf-RBD, z-stack images can be taken and averaged for display and the intensity profiles. […]
To quantify the nanobar-guided clustering of Ras variants, the fluorescence intensity ratio at the nanobar end to the flat sidewall (i.e. Enrichment Index, EI) is calculated. […] Next, the nanobars covered by the cell to be analyzed are identified by a custom-written MATLAB (MathWorks) code. […] To minimize the possible human bias, all the parameters for the calculation and the sorting criteria for data validation have been kept consistent throughout the entire quantification process. After the data validation, the remaining data points are ready for plotting. […]

B1: EGF: Epidermal Growth Factor used to activate wild-type K-Ras in cells (protein, UniProt P01133 23-1207, looked up)
Pro-epidermal growth factor: PQHWSCPEGTLAGNGNSTCVGPAPFLIFSHGNSIFRIDTEGTNYEQLVVDAGVSVIMDFHYNEKRIYWVDLERQLLQRVFLNGSRQERVCNIEKNVSGMAINWINEEVIWSNQQEGIITVTDMKGNNSHILLSALKYPANVAVDPVERFIFWSSEVAGSLYRADLDGVGVKALLETSEKITAVSLDVLDKRLFWIQYNREGSNSLICSCDYDGGSVHISKHPTQHNLFAMSLFGDRIFYSTWKMKTIWIANKHTGKDMVRINLHSSFVPLGELKVVHPLAQPKAEDDTWEPEQKLCKLRKGNCSSTVCGQDLQSHLCMCAEGYALSRDRKYCEDVNECAFWNHGCTLGCKNTPGSYYCTCPVGFVLLPDGKRCHQLVSCPRNVSECSHDCVLTSEGPLCFCPEGSVLERDGKTCSGCSSPDNGGCSQLCVPLSPVSWECDCFPGYDLQLDEKSCAASGPQPFLLFANSQDIRHMHFDGTDYGTLLSQQMGMVYALDHDPVENKIYFAHTALKWIERANMDGSQRERLIEEGVDVPEGLAVDWIGRRFYWTDRGKSLIGRSDLNGKRSKIITKENISQPRGIAVHPMAKRLFWTDTGINPRIESSSLQGLGRLVIASSDLIWPSGITIDFLTDKLYWCDAKQSVIEMANLDGSKRRRLTQNDVGHPFAVAVFEDYVWFSDWAMPSVMRVNKRTGKDRVRLQGSMLKPSSLVVVHPLAKPGADPCLYQNGGCEHICKKRLGTAWCSCREGFMKASDGKTCLALDGHQLLAGGEVDLKNQVTPLDILSKTRVSEDNITESQHMLVAEIMVSDQDDCAPVGCSMYARCISEGEDATCQCLKGFAGDGKLCSDIDECEMGVPVCPPASSKCINTEGGYVCRCSEGYQGDGIHCLDIDECQLGEHSCGENASCTNTEGGYTCMCAGRLSEPGLICPDSTPPPHLREDDHHYSVRNSDSECPLSHDGYCLHDGVCMYIEALDKYACNCVVGYIGERCQYRDLKWWELRHAGHGQQQKVIVVAVCVVVLVMLLLLSLWGAHYYRTQKLLSKNPKNPYEESSRDVRSRRPADTEDGMSSCPQPWFVVIKEHQDLKNGGQPVAGEDGQAADGSMQPTSWRQEPQLCGMGTEQGCWIPVSSDKGSCPQVMERSFHMPSYGTQTLEGGVEKPHSLLSANPLWQQRALDPPHQMELTQ
modifications: Pro-epidermal growth factor
For B1, the “Enrichment Index (EI) of KRasWT” value was 1.89 ± 0.042.
